Assay results published in the supplement of paper PMC7125110.
± gives the standard error. Variants at the floor of the assay were thinned out.

B1: glmS ribozyme (parent)
chain: AUAAAAGCGCCAGAACUACAGAAAUGUAGUUGACGAGGAGGAGGUUUAUCGAAUUUUCGGCGGAUGCCUCCAAA

Variants of: B1
Assay: self-cleavage kobs at 2500 uM GlcN6P; higher = faster cleavage; RNA array
Conditions: with glucosamine-6-phosphate
Procedure, shortened: (§1)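 kobs was derived by fitting per-tile medians to one- or two-exponential decays after normalising signals to baseline and to non-cleaving reference variants. Those signals came from barcoded ribozyme variants transcribed in situ by E. coli RNA polymerase on sequenced MiSeq chips, followed through a hybridised Cy3 probe at 37 °C and imaged over ~14 h. Glucosamine-6-phosphate (40 μM to 10 mM) in HEPES/KCl/Mg(OAc)2 buffer was flowed in. Weighted Michaelis–Menten fits across concentrations then gave kcat and KM.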

Variant	self-cleavage kobs at 2500 uM GlcN6P
A6U G35U G51U	< 1e-05 s⁻¹
G29C C58G G59C C61A G63A	< 1e-05 s⁻¹
C11G C61A C68A	8.83e-05 ± 2.3e-05 s⁻¹
C8G G37C G43A G59A	< 1e-05 s⁻¹
A12U A15G U45C C50G C61A	< 1e-05 s⁻¹
A14C G29U A53G U65G	6.14e-05 ± 1.8e-05 s⁻¹
A39U U49A U56G	< 1e-05 s⁻¹
G13U U47A C50U	< 1e-05 s⁻¹
G7U G9U U47A	< 1e-05 s⁻¹
G29U G32U C50G	6.06e-05 ± 2.9e-05 s⁻¹
A12C A15U G43C G51A	< 1e-05 s⁻¹
C11A C34G U49A	< 1e-05 s⁻¹
G43A G66U C67U C71U	< 1e-05 s⁻¹
G9C G59C G63U	< 1e-05 s⁻¹
A33U G35U G51C A64U	< 1e-05 s⁻¹
G9A G13C A33C G38C C61U G63U G66C	< 1e-05 s⁻¹
A6U A15U A36C	< 1e-05 s⁻¹
C16U G32C U54C	5.6e-05 ± 2.1e-05 s⁻¹
A42G A52C A53G U54G	< 1e-05 s⁻¹
U30C G63A U69G	8.06e-05 ± 3.9e-05 s⁻¹
C11U C16U C61U	< 1e-05 s⁻¹
C11U U47C G62A	< 1e-05 s⁻¹
C16G G32U G66A	0.000109 ± 3.9e-05 s⁻¹

Variant	self-cleavage kobs at 2500 uM GlcN6P
G13C G37U C58U G60A	< 1e-05 s⁻¹
A6C A14G C50U	< 1e-05 s⁻¹
G7U A33U G35C G44C U45G G66U	< 1e-05 s⁻¹
A6C C10U G37U C50G U54C C70A	0.000151 ± 3.4e-05 s⁻¹
A14C C50A U54C	< 1e-05 s⁻¹
A15U C16U U45A	0.00158 ± 0.00051 s⁻¹
A36C A52G C61G	< 1e-05 s⁻¹
A52C U57C G66U	< 1e-05 s⁻¹
A14C U55A C68A	6.41e-05 ± 2.5e-05 s⁻¹
G38C A48U U57C C67U	< 1e-05 s⁻¹
G13A G43A U49C C58A	< 1e-05 s⁻¹
U45C U46A	4.42e-05 ± 1.9e-05 s⁻¹
C50U U55A C68G	0.00018 ± 5.2e-05 s⁻¹
A14U G32A G38U C50G C71G	0.000179 ± 3.5e-05 s⁻¹
A6U A14U G29A C34G G63A	< 1e-05 s⁻¹
G43A G44C U54G	< 1e-05 s⁻¹
G7A G9C A36C	< 1e-05 s⁻¹
A14G C67G C68A	2.78e-05 ± 1.3e-05 s⁻¹
C11U G43U U47G	< 1e-05 s⁻¹
G26U A33U	0.000111 ± 2.1e-05 s⁻¹
A48U C50U U56C G63A A64C U65A	< 1e-05 s⁻¹
G29U U31C U54C	0.000161 ± 3.5e-05 s⁻¹
A6G G38A C50G U57G C68U	8.04e-05 ± 1.4e-05 s⁻¹

Variant	self-cleavage kobs at 2500 uM GlcN6P
C16A C50G C67A	0.00038 ± 0.00013 s⁻¹
G38U U45C U57A	< 1e-05 s⁻¹
G37A A42U A52G C71A	< 1e-05 s⁻¹
C10G C34U G37U A42G	< 1e-05 s⁻¹
G7A G44U A48G	< 1e-05 s⁻¹
A12G C34U C68A	< 1e-05 s⁻¹
A6U G9C A33C C50G A52C U56C C68A C71U	< 1e-05 s⁻¹
C10A A12U U31G U46C	< 1e-05 s⁻¹
A36G G44U A48G C67U C71A	< 1e-05 s⁻¹
C50A U65G U69G C70A	8e-05 ± 2.9e-05 s⁻¹
A15U G37U G43C U56A C68G C71G	< 1e-05 s⁻¹
A33C G40A G43C A52C	< 1e-05 s⁻¹
A12U G13A G38U	< 1e-05 s⁻¹
G44U U57A C71A	< 1e-05 s⁻¹
U31A A33U U56G U65G C68A	< 1e-05 s⁻¹
A14U G66A C70U	0.00125 ± 0.00031 s⁻¹
C16U U31G G41C C67U	< 1e-05 s⁻¹
A15G A39U G40A C61A	< 1e-05 s⁻¹
U30A G38A A39G C58A G63C C71A	< 1e-05 s⁻¹
G51U A53G U69G	4.29e-05 ± 2e-05 s⁻¹
U31C G38A G40A	< 1e-05 s⁻¹
G29A G63A	< 1e-05 s⁻¹
A42U C50U G51U U54C	< 1e-05 s⁻¹

Variant	self-cleavage kobs at 2500 uM GlcN6P
U30C G35A C67G	< 1e-05 s⁻¹
U56A G59A	5.17e-05 ± 1.7e-05 s⁻¹
G13U A42U C50U	< 1e-05 s⁻¹
G29C A33U G38C U56A C71U	< 1e-05 s⁻¹
A14G U46C A48C C68U	8.06e-05 ± 3.1e-05 s⁻¹
A42U C61G U69G C70A	< 1e-05 s⁻¹
G7C C11A C16U	< 1e-05 s⁻¹
A6G C50U A64C C71U	< 1e-05 s⁻¹
G29C G37A G43C U69A	< 1e-05 s⁻¹
A6U A14C U45A A48G G66U	< 1e-05 s⁻¹
U46C U47A U69A	0.000198 ± 6.5e-05 s⁻¹
C50U A52C C58U	< 1e-05 s⁻¹
G40A G59C G63A C68A	< 1e-05 s⁻¹
G35U A42U A64U	< 1e-05 s⁻¹
A12G C16U A53C	7.22e-05 ± 1.7e-05 s⁻¹
G44A A48G U55A	< 1e-05 s⁻¹
U30C C34G G44C U57G C70U	< 1e-05 s⁻¹
C8G G59C A64G	< 1e-05 s⁻¹
C11U A12G U56C	0.000115 ± 2.6e-05 s⁻¹
C16G G29U A39U G51U C71U	< 1e-05 s⁻¹
G32C G51U U56C	< 1e-05 s⁻¹
G32C A33U G40U	< 1e-05 s⁻¹
G37A G38A A39C	< 1e-05 s⁻¹

Variant	self-cleavage kobs at 2500 uM GlcN6P
C10U G51C C58G	< 1e-05 s⁻¹
A12U G44U C67U	0.0167 ± 0.0049 s⁻¹
A12U A39G U55C	0.0482 ± 0.021 s⁻¹
U57C G60A G66C	< 1e-05 s⁻¹
G35C G60U C67A	< 1e-05 s⁻¹
C11U U31C C50A	< 1e-05 s⁻¹
C34G A36U G40A A64C C71G	< 1e-05 s⁻¹
G32C A36U A53C	< 1e-05 s⁻¹
U30G G32U	0.000223 ± 6.5e-05 s⁻¹
A14C U31C U54C	0.0014 ± 0.00039 s⁻¹
G38A U55C U56C	< 1e-05 s⁻¹
G7C U31C U46C G66U	< 1e-05 s⁻¹
A33U A42G C61A G66A	< 1e-05 s⁻¹
A39C G60A C61A	< 1e-05 s⁻¹
G7U G32U U54C C68G	< 1e-05 s⁻¹
A12C A36G A42U U45A G51U	< 1e-05 s⁻¹
C10U G32U U69A	4.03e-05 ± 1.7e-05 s⁻¹
G32U A48C G51C	< 1e-05 s⁻¹
U30C C58G C68U	0.000104 ± 2.9e-05 s⁻¹
G7A G32U G60U	< 1e-05 s⁻¹
A6C G13A A39C C67U C70G	< 1e-05 s⁻¹
C10U C16U G37U G38A A39G C50G A64G U65C	0.000287 ± 0.00013 s⁻¹
G13U G29U U54G	8.58e-05 ± 2.4e-05 s⁻¹

Variant	self-cleavage kobs at 2500 uM GlcN6P
G9U U54C G63C	< 1e-05 s⁻¹
G29A G32C C34A A48G U57A	< 1e-05 s⁻¹
C11A C34A A42C C70A	< 1e-05 s⁻¹
C8U G29C G60U	< 1e-05 s⁻¹
C8G A42U U49C A52G	< 1e-05 s⁻¹
G9U C11U G29U A52U	< 1e-05 s⁻¹
G29C G32U C67A	4.32e-05 ± 2e-05 s⁻¹
A6G G51C G62A	< 1e-05 s⁻¹
G32C C50G U55A U56G U57C	0.000162 ± 5.8e-05 s⁻¹
G9U C16A A42C U54A A64G C70U	< 1e-05 s⁻¹
C11U C16A U56G	0.000124 ± 4.3e-05 s⁻¹
G32U U46A C50U	< 1e-05 s⁻¹
A12U G41U A48U	7.03e-05 ± 3e-05 s⁻¹
C10A G35A G40C	< 1e-05 s⁻¹
C8A G13U A53G U65G	< 1e-05 s⁻¹
G9C U45G C50U G59U	< 1e-05 s⁻¹
C16U A39U U54G	0.00743 ± 0.0018 s⁻¹
A48G U54G C70U	0.000276 ± 7.7e-05 s⁻¹
C10G G43U U46C	< 1e-05 s⁻¹
C10A A15C A42C	< 1e-05 s⁻¹
C10U A53G G66U C68G	4.34e-05 ± 1.4e-05 s⁻¹
A36C G37A G51C C61U	< 1e-05 s⁻¹
U45C C58U G59C	< 1e-05 s⁻¹

Variant	self-cleavage kobs at 2500 uM GlcN6P
C10A G51A G66A C68A C70A	7.81e-05 ± 3.1e-05 s⁻¹
A36G C58U G59U A64G	< 1e-05 s⁻¹
G7C U45A G51U G59U	< 1e-05 s⁻¹
G26A U30C	0.000125 ± 3.9e-05 s⁻¹
C10U U57G C67U C70U	6.12e-05 ± 2.7e-05 s⁻¹
A15G G32A C71G	0.000277 ± 0.0001 s⁻¹
G13C G35U A52C	< 1e-05 s⁻¹
C8G C58U C61U G63U C68U	< 1e-05 s⁻¹
C11G G51C A64C	< 1e-05 s⁻¹
A52G C58G C61A A64U C67U	9.05e-05 ± 3.3e-05 s⁻¹
A14C G21U G26U A36C	< 1e-05 s⁻¹
C8G A64U C70U	< 1e-05 s⁻¹
A12U A15C G44U	4.81e-05 ± 1.7e-05 s⁻¹
U30C U65G C67G	0.000128 ± 3.3e-05 s⁻¹
G7A A42U	< 1e-05 s⁻¹
G40U C50G G62A	< 1e-05 s⁻¹
A6C G29U G40A U49G C68U	< 1e-05 s⁻¹
C10A G44U U49G U54C G60U C67U	< 1e-05 s⁻¹
G9A C10U U30A G44A	< 1e-05 s⁻¹
A42C U45C A48U C61A	< 1e-05 s⁻¹
G29U G37C U46G	< 1e-05 s⁻¹
C8U A14G C50U C71G	< 1e-05 s⁻¹

Variants of: B1
Assay: self-cleavage kobs at 10000 uM GlcN6P; higher = faster cleavage; RNA array
Conditions: with glucosamine-6-phosphate
Procedure, shortened: as §1

Variant	self-cleavage kobs at 10000 uM GlcN6P
A39U U49A U56G	< 1e-05 s⁻¹
G9C G59C G63U	< 1e-05 s⁻¹
C16G G32U G66A	0.000209 ± 5.7e-05 s⁻¹
U45C U46A	5.25e-05 ± 1.3e-05 s⁻¹
A6U G9C A33C C50G A52C U56C C68A C71U	< 1e-05 s⁻¹
U30A G38A A39G C58A G63C C71A	< 1e-05 s⁻¹
U56A G59A	4.86e-05 ± 9.7e-06 s⁻¹
G13U A42U C50U	< 1e-05 s⁻¹
G44A A48G U55A	< 1e-05 s⁻¹
U30G G32U	0.000612 ± 0.00015 s⁻¹
G7U G32U U54C C68G	< 1e-05 s⁻¹
C10U C16U G37U G38A A39G C50G A64G U65C	0.0013 ± 0.0004 s⁻¹
G29C G32U C67A	0.00017 ± 2.6e-05 s⁻¹
A15G G32A C71G	0.000201 ± 3.3e-05 s⁻¹
U30C U65G C67G	2.81e-05 ± 1.3e-05 s⁻¹
G7A A42U	< 1e-05 s⁻¹
